{
  "source": "the DeepSol protein solubility set",
  "data": [
    {"experiment": "soluble on expression in E. coli; label from the status in PepcDB or PDB records", "values": [
      {"sequence": "MSGEESMPDEEQKQSEEEEEMIRKRTLAMRKKVEEIMRNGAGLVRESNGLPKAGADYELYNSYPTFNTFMKRSEQRLNALMNKVTKSIGCAMRVPDVGSSVEHYTECVIEAQDNIAERAATLHEALKKAELDEIVKVPEFITKAAPTNRKTEAEVSAAMRTFSANIGTVLAEKFRERREEAAQMVVLEKPQKTYNISSDNSQAPFSSKLTVKHHAIEKRTGIVLHDDDESGRRDWISAETETEEEHPYIAEILHFKVPEAQLKSAECLKFTALKDTPLTMIDTKEKLEALTKTLNSVKEFAVDLEHHQMRSYLGLTCLIQISTRDEDFIIDPFPIWDHVGMLNEPFANPRILKVFHGSDSDVLWLQRDYGVHVVNLFDTYVAMKKLKYPKFSLAYLTLRFADVVLDKQYQLADWRARPLRNAMINYAREDTHYLLYSYDMLREQLLKQDTKDLANVYSESSDLCIKVYKKPVFNPKGYLTEIKFRFTLNTRQDYALTHLFKWRDVVARAEDESPHFVLPNHMMLSLSETLPRDVGGIYACCNPLPYFVKQRTGDILKIIVEARDVKLEKVGLSAKERNDAQEARGVMNDTMDHITSVLKSKIDFSHTRFDEERGEIYIDKTDEGMDIELKDHKESLLSVLQTAEIPSVETMIVVEKGKKSDNQKVKKLLNELDKFVTPFECYQMMMITKEKQEEEERKEAERKKLEEGDLPKTMFSHHDAPINRKPEFDAKLLNVDTLKLVPDDPNKPKDPEPSPMEESSSEPQIFDPSRFTDDQLLSKKAMKRKRDAARRNIDVSVVLGESSSSSDPKKKKSDDDAPVEDFDYEKADSSAFEKPVRDNNADFDPFHQKYRLKNKTKKNMAMKKSSNRQGTINYKK", "soluble on expression in E. coli": "not soluble"},
      {"sequence": "MWDQHMHCMFSGDSDADPVLMINSAINKGLDGICFTDHLDYDYKEEPGLFDLDIAAYEKRIKRLAIVLKEKGCPINIHWGIEIGLQPHITDKNNEVAKKYPFDLVIGSSHVVNGIDPYYPAFYKGKTEHEAYTEYFESILDNLHSGADFDVYGHIDYVVRYGPDKNKYYSYERYADIIDAILKEIISQGKGIELNTAGFKYGLGHSNPTEDVLKRYHELGGEIITVGADAHKPEHVAYDFDKVSNILKDAGFMYYTVFENRVPAFIKL", "soluble on expression in E. coli": "not soluble"},
      {"sequence": "MFVGPSPPHTPLVNRRNINNHRPRNATVTSALPDIFLAAVSLLFLWSSPKPLVSLPPNRFSFPLNPRRRSITAMSRRSPPPPPPTQRFANPQSLSDWLESRLPSDSFAAWGVKPGTKNVHNLWLELSDGETSLADSTPPVRTVNVVTVRVIGKNGRILVEAHQELSDGSIRERFRPLSEKMKPEESPDEAVFRAIKEELGSIFNGDGDNIGQRIKILPGTYNRRVEERNSLSYPGLPARYALHSVNATVEGLPEQDFCTEEKEYEGGDSTKDSVETLAAGNAVTVKRHYWKWVSPDSIRS", "soluble on expression in E. coli": "not soluble"},
      {"sequence": "MGSDKIHHHHHHMKKLICISLYEDLSMTTYDLSKVDNAELIGIVENASEGTLFVFTCDRPNGSSVIMCPGGGFLKTNLENEGIDFAEWFTKLGITYIVFKYRMPHGNPDVPEQDTRLALKVVREKFPEFCDKLGVMGASIGGYLATFSATLLPDDEKPDFQILMYPVVSVDDRLTHFPCRERMFGHSYSPDKMEQYSPIEHITSGTPAAFIVAAADDAVVSPLNGIMYAARLQKADIPISLHIYPAGGHGFGYNDSFVYKQEWLQELGEWLAKL", "soluble on expression in E. coli": "not soluble"},
      {"sequence": "MSLRITGERIYLRPFQIIDANQKLAFHLANKAFFEGYSMERDDRFYTIEEQQSLISRLEDFAASDVEYYYGIFLNDTDELIGTINLFSILRESLQSAFIGYFLDKKHNGNGYATEAVQLIVDFGFDILGLHRIEAGVMPKNERSKQVLLKAGFHLEGLAVQNVRINGTWEDHQVLAIINPGDEGHHHHHH", "soluble on expression in E. coli": "soluble"},
      {"sequence": "MDKFKSMTELKELTKEGKDWEIECENRSSIVTILALHGGGIEPATTELAYTIAHCGDYNYFSFKGMRSKGNNELHVTSTHYDDQIALDLVRGSQRTVAIHGCEGNESVAYIGGSDDRLIELITESLEDIGISVREAPHHISGTQENNIVNMTQTQGGVQLELTAQLRKELFKNRKSSLEHHHHHH", "soluble on expression in E. coli": "not soluble"},
      {"sequence": "MSYVIDRRLNGKNKSTVNRQRFLRRYREHIKKAVEEAVSRRSITDMEHGEQISIPGRDIDEPVLHHGRGGRQTVVHPGNKEFTAGEHIARPSGGGGGRGGGKASNSGEGMDDFVFQITQEEFLDFMFEDLELPNLVKRHITGTDTFKTVRAGISNDGNPSRINIVRTLRSAHARRIALSGGSRAKLRAALKELERIKREEPDNLGDIQELELEIAKLRARIDRVPFLDTFDLKYNLLVKQPNPTSKAVMFCLMDVSGSMTQATKDIAKRFFILLYLFLKRNYEKIEVVFIRHHTSAREVDEEEFFYSRETGGTIVSSALKMMQEIMAERYPTHEWNIYAAQASDGDNWNDDSPVCRDILLKQIMPFVQYYTYVEITPREHQALWFEYERVREAFEDSFAQQQIVSASDIYPVFRELFQRRLVAKLAAALEHHHHHH", "soluble on expression in E. coli": "not soluble"},
      {"sequence": "MTSELKNNEEDYNSSSDEDYDPTKDTDFDPKDEIDDQEECEDGIDEEVEHLKNEKQSDDHTSEKANSTEGSVDVDAIFAELTGLAPKPVVNDTSSKNIPKTEERVYPKSAASASNESTNQKVYPKKTETAGTSSESSIVPGKKRVGLLDAAKSLSKRSKISVLEKSDRDWKDFTTQNNLKEDLESHNRGKGGYLNKMDFLNRADNRQFEKERAFRATARKDTGQ", "soluble on expression in E. coli": "not soluble"},
      {"sequence": "MAHHHHHHMAYVFDKITKTVTIYMGNTKSKIVLGGLWQRGMKGYIIYDVARQGTPPDTNFAPTTGWSMILVSSPNVRNYDGWATQVKASRIIMNCPDEMDVKAMCAWMKRGLDTDKQAGYWKMVEKHMEKVGPIPRHIFDADEYGERTWDATSALRWINIGEQRKYFTKGGEQWYSEDLSHKLLKIVRVREDGAFEDLSNAPICDYLGVLTVSRLAKALSPNDILFLVLGMKNVVQSAALKKYGLNVFLSVEFVTSIVTDLKELQPPSPSEPRSSVLTLNPHGYPTEAAAITELKFIDRPQELKYRVLYIPTFPTFPLVDGFFFVDSPRKTLVGLQMTTASAHHTTASTVRQFTECMAAYFDDWDEFSRDMSWDMIYIQHAASKPMKKRQKCLYVDSNNKTDAEKKIVAFWNGKVHQYQFVLTTDF", "soluble on expression in E. coli": "not soluble"},
      {"sequence": "MKKYEIIFKKLEEDILKGHYQMGDYLPPEMELSQTYASSRDTVRKALQLLTKAGFIKTVQGRGSQIIKRERINFPVSQLTSYQELVKQLQMNVKTNVIAIDKLIVDEKLTKLTGFENKGLVWRITRQRVIDGVASILDTDYLDKALIPHMTREIAEHSIYDYLENQLKLDIAYAQKIITIDQVSQKDKILLDLDSENHVVSVKSKVYLSNQQQFQFTESRHKLEKFRFVDFARRHRD", "soluble on expression in E. coli": "not soluble"},
      {"sequence": "MSSTLPVINLMGPTASGKTALACELYERGHFELISVDSALIYKDMDIGTAKPTKEELALYPHHLIDIITPLEVYSAAQFVEDATQLIDQIHMKGKTPILVGGTMLYFKSLLEGLSTNLPSADAEVRAAIEKQAEQEGWQSVYDELARVDPVAGARFKVSDRQRIIRAIEVYRLTGQPITKLQAEQPKNVPYRYTFHNYALLPDRIELHKRIEQRLFKMWSIGFLNEVESLIKKYDLNDNLPSMRSVGYRQALDFLLKSDMSHNNRREMEDKALFATRQLAKRQYTWLRSLQETHYFKTYLTIKQAQEDLRNSYGLEHHHHHH", "soluble on expression in E. coli": "soluble"},
      {"sequence": "MGKMRTPQEVPARLDALAEAARKLKFDVREPVDAGAGAIGAVHSLDYLRFLREAHARWKQLPDDWGDEVVSNVFVREPNALRGVLAQAARYLADGSCPVGPHTWQSAYWAAQCAISGAQTLLDGERHAYALCRPPGHHARRDAAGGFCYLNNAAIAAQMLTQRYKRVAILDTDMHHGQGIQEIFYERSDVLYVSIHGDPENFYPVVAGFENERGAGEGYGYNVNLPMPHGSPEPVFFDRLQQAQRAIELFQPDALVLSLGFDVFEKDPQAMVAVSANGFERLGQAIGAFKLPTLIVQEGGYYIEGLEDNAERFFAGLAKALEHHHHHH", "soluble on expression in E. coli": "not soluble"},
      {"sequence": "MGSDKIHHHHHHMLMETTRLLDIRSMSVEFPGVKALDQVDFTLNRGEIVALLGENGAGKSTLIKALTGVYHRSSGDIILDGIAINPVNTAHAQSLGIGTVYQEVNLLPNLSVAANLFIGREPTRWGIVDQHKILLQAEALLLNYGLAIDVSHPLGNYSIAVQQIVAIARAVDLSAKVLILDEPTASLDAKEVDMLLDILRKLRDRGIGMIFVTHFLDQVYRISDRITVLRNGRLVGTLPTAELPRIELVQMMLGHSFDETLLKRGEHSDVSGEPIVQFKHYGRRGSINDFELSVRPGEIVGLAGLLGSGRTETAQLIFGINVPDAGEAWVDGKKINIRTPRAAGKLGFGYCPEDRKTDGIVGAATVRENIILALQAQRGWLKPISLREQTRIAEKFISLLGIRTPSAEQEIQYLSGGNQQKVLLSRWLATEPRFLILDEPTRGIDVGAHAEIIRLIEKLCEQGMALLVISSELEELTGYADRIIVLRDRQHVAHLEHSEISVAAVMQAIAVQTGAADDRQ", "soluble on expression in E. coli": "not soluble"},
      {"sequence": "MSLDPDAGVIFARTAAGAAVALGLLKCGRIWLCPVCSGQDPARPSEEITEAVVSWLQQGGWAYLVTFTARHTAADRLSDLMDALQGTRADAETGTKRRPGAYQRLITGAAWAGDKRRKSNQEGIRGRIGYIGMIRATEVTVGEGAGWHPHIHAIVLVGGRTEGQRGDKRITGTFTPSEDALTEWEDRWRRSGPATLARSTPGFRPPTGARSPGATAGARATASTSSSSVRSGRQRPGRVHRQDAGRQEPGPGAGTRRPQGRPPGQHDVLRTPSRIGDLMGGVPEEEAAGHGSLAWGLDRWAEYETAVSGAGHRVDPLPAPAPGPDRRRHRGRRHGRPVPDRAARRFRDGVQIWDRAWKGLVGRSLDLAVVEAVEGREISMDALGELVQSAGQSRAFLRVLTPQEVTELYDELLRTLARRREQAAERRAAEAAEAEPTTREGHHHHHH", "soluble on expression in E. coli": "not soluble"},
      {"sequence": "MSLKLEIIAIGGYEEVGRNMTAVNVDGEIIILDMGIRLDRVLIHEDTDISKLHSLELIEKGIIPNDTVMKNIEGEVKAIVLSHGHLDHIGAVPKLAHRYNAPIIGTPYTIELVKREILSEKKFDVRNPLIVLNAGESIDLTPNITLEFIRITHSIPDSVLPVLHTPYGSIVYGNDFKFDNFPVVGERPDYRAIKKVGKNGVLCFISETTRINHEGKTPPEIIASGLLKNDLLAADNDKHGIIVTTFSSHIARIKSITDIAEKMGRTPVLLGRSMMRFCGIAQDIGLVKFPEDLRIYGDPSSIEMALKNIVKEGKEKYLIIATGHQGEEGAVLSRMATNKTPYKFEKYDCVVFSADPIPNPMNAAQRYMLESRLKLLGVRIFKGAHVSGHAAKEDHRDMLRWLNPEHIIPSHGDFNLTAEYTKLAEEEGYRLGEDVHLLRNGQCLSFEREGHHHHHH", "soluble on expression in E. coli": "soluble"},
      {"sequence": "MGHHHHHHSHMAAAIASSLIRQKRQAREREKSNACKCVSSPSKGKTSCDKNKLNVFSRVKLFGSKKRRRRRPEPQLKGIVTKLYSRQGYHLQLQADGTIDGTKDEDSTYTLFNLIPVGLRVVAIQGVQTKLYLAMNSEGYLYTSELFTPECKFKESVFENYYVTYSSMIYRQQQSGRGWYLGLNKEGEIMKGNHVKKNKPAAHFLPKPLKVAMYKEPSLHDLTEFSRSGSGTPTKSRSVSGVLNGGKSMSHNEST", "soluble on expression in E. coli": "soluble"},
      {"sequence": "MSLPTTIQAISAEAINLPLTEPFAIASGAQAVAANVLVKVQLADGTLGLGEAAPFPAVSGETQTGTSAAIERLQSHLLGADVRGWRKLAAMLDHAEHEAAAARCGLEMAMLDALTRHYHMPLHVFFGGVSKQLETDMTITAGDEVHAAASAKAILARGIKSIKVKTAGVDVAYDLARLRAIHQAAPTAPLIVDGNCGYDVERALAFCAACKAESIPMVLFEQPLPREDWAGMAQVTAQSGFAVAADESARSAHDVLRIAREGTASVINIKLMKAGVAEGLKMIAIAQAAGLGLMIGGMVESILAMSFSANLAAGNGGFDFIDLDTPLFIAEHPFIGGFAQTGGTLQLADVAGHGVNLEGHHHHHH", "soluble on expression in E. coli": "soluble"}
    ]}
  ]
}
